The text below walks through data of the supplement of paper PMC7125110.

± gives the standard error. Fewer inactive variants are shown than the library holds. Bounds are passed on as bounds.

B1: glmS ribozyme (parent)
chain: AUAAAAGCGCCAGAACUACAGAAAUGUAGUUGACGAGGAGGAGGUUUAUCGAAUUUUCGGCGGAUGCCUCCAAA

Holding throughout (conditions): with glucosamine-6-phosphate
In data set [1] the parent is B1. Put plainly: self-cleavage kobs at 40 uM GlcN6P; higher = faster cleavage; RNA array. The gist of the method: (§1)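 Over ~14 h at 37 °C, tiles were imaged as glucosamine-6-phosphate (40 μM to 10 mM) in HEPES/KCl/Mg(OAc)2 buffer flowed across sequenced MiSeq chips. The chips carried barcoded ribozyme variants transcribed in situ by E. coli RNA polymerase and tracked with a hybridised Cy3 probe. After normalisation to baseline and to non-cleaving reference variants, one- or two-exponential decay fits of per-tile medians gave kobs. kcat and KM followed from weighted Michaelis–Menten fits across concentrations.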

In data set [2] the parent is B1. Put plainly: self-cleavage kobs at 160 uM GlcN6P; higher = faster cleavage; RNA array. The gist of the method:
as §1

Variants of B1 are the subject of data set [3]. The data set is described as follows: self-cleavage kobs at 2500 uM GlcN6P; higher = faster cleavage; RNA array. The gist of the method: as §1
The variants in data set [4] derive from B1. The data set is described as follows: self-cleavage kobs at 10000 uM GlcN6P; higher = faster cleavage; RNA array. The gist of the method: as §1
Variants of B1 are the subject of data set [5]. Put plainly: self-cleavage kobs at 640 uM GlcN6P; higher = faster cleavage; RNA array. Summed up: as §1

Regarding A39U G60C, the “self-cleavage kobs at 40 uM GlcN6P” value with glucosamine-6-phosphate [1] is < 1e-05 s⁻¹. Further, the “self-cleavage kobs at 160 uM GlcN6P” value with glucosamine-6-phosphate [2] was < 1e-05 s⁻¹. Also, the “self-cleavage kobs at 2500 uM GlcN6P” value with glucosamine-6-phosphate [3] was < 1e-05 s⁻¹. For the same variant, the “self-cleavage kobs at 10000 uM GlcN6P” value with glucosamine-6-phosphate [4] is < 1e-05 s⁻¹.
With G37U C58A G60C C70A, in the data set with glucosamine-6-phosphate [1], the “self-cleavage kobs at 40 uM GlcN6P” value is < 1e-05 s⁻¹. For the same variant, in the data set with glucosamine-6-phosphate [4], the “self-cleavage kobs at 10000 uM GlcN6P” value is < 1e-05 s⁻¹.
For U31G C70U, the “self-cleavage kobs at 40 uM GlcN6P” value with glucosamine-6-phosphate [1] turned out to be 0.000479 ± 7.2e-05 s⁻¹. In addition, the “self-cleavage kobs at 160 uM GlcN6P” value in the data set with glucosamine-6-phosphate [2] came to 0.00104 ± 0.0002 s⁻¹. In the data set with glucosamine-6-phosphate [5], the “self-cleavage kobs at 640 uM GlcN6P” value amounted to 0.0023 ± 0.00038 s⁻¹. Further, in the data set with glucosamine-6-phosphate [3], the “self-cleavage kobs at 2500 uM GlcN6P” value is 0.0117 ± 0.0029 s⁻¹. In addition, the “self-cleavage kobs at 10000 uM GlcN6P” value with glucosamine-6-phosphate [4] was determined as 0.0305 ± 0.0058 s⁻¹.
As for U31G A42U C50U C61G, the “self-cleavage kobs at 40 uM GlcN6P” value with glucosamine-6-phosphate [1] is < 1e-05 s⁻¹. Besides, the “self-cleavage kobs at 10000 uM GlcN6P” value with glucosamine-6-phosphate [4] was < 1e-05 s⁻¹.
Take C10U G44U: the “self-cleavage kobs at 40 uM GlcN6P” value with glucosamine-6-phosphate [1] is < 1e-05 s⁻¹. The “self-cleavage kobs at 640 uM GlcN6P” value with glucosamine-6-phosphate [5] is < 1e-05 s⁻¹. Moreover, in the data set with glucosamine-6-phosphate [3], the “self-cleavage kobs at 2500 uM GlcN6P” value is < 1e-05 s⁻¹. Besides, the “self-cleavage kobs at 10000 uM GlcN6P” value with glucosamine-6-phosphate [4] is < 1e-05 s⁻¹.
For A53U U65A, in the data set with glucosamine-6-phosphate [1], the “self-cleavage kobs at 40 uM GlcN6P” value was 4.97e-05 ± 1.8e-05 s⁻¹. Moreover, in the data set with glucosamine-6-phosphate [2], the “self-cleavage kobs at 160 uM GlcN6P” value came out at 7.52e-05 ± 2.1e-05 s⁻¹. Besides, the “self-cleavage kobs at 2500 uM GlcN6P” value with glucosamine-6-phosphate [3] was 0.00238 ± 0.00058 s⁻¹. For the same variant, the “self-cleavage kobs at 10000 uM GlcN6P” value in the data set with glucosamine-6-phosphate [4] is 0.00253 ± 0.00061 s⁻¹.
As to G37U G40U, the “self-cleavage kobs at 40 uM GlcN6P” value with glucosamine-6-phosphate [1] is < 1e-05 s⁻¹. The “self-cleavage kobs at 160 uM GlcN6P” value with glucosamine-6-phosphate [2] was < 1e-05 s⁻¹. The “self-cleavage kobs at 640 uM GlcN6P” value with glucosamine-6-phosphate [5] was < 1e-05 s⁻¹. Further, the “self-cleavage kobs at 2500 uM GlcN6P” value with glucosamine-6-phosphate [3] was < 1e-05 s⁻¹. Besides, in the data set with glucosamine-6-phosphate [4], the “self-cleavage kobs at 10000 uM GlcN6P” value was < 1e-05 s⁻¹.
For the variant A15C C16A U31G A36G A39G A42C, the “self-cleavage kobs at 40 uM GlcN6P” value with glucosamine-6-phosphate [1] is < 1e-05 s⁻¹. Further, in the data set with glucosamine-6-phosphate [3], the “self-cleavage kobs at 2500 uM GlcN6P” value was < 1e-05 s⁻¹.
In the case of A52G U56C, in the data set with glucosamine-6-phosphate [1], the “self-cleavage kobs at 40 uM GlcN6P” value was < 1e-05 s⁻¹. For the same variant, in the data set with glucosamine-6-phosphate [5], the “self-cleavage kobs at 640 uM GlcN6P” value turned out to be 4.15e-05 ± 1.2e-05 s⁻¹. In the data set with glucosamine-6-phosphate [3], the “self-cleavage kobs at 2500 uM GlcN6P” value is 7.09e-05 ± 1.3e-05 s⁻¹. Further, in the data set with glucosamine-6-phosphate [4], the “self-cleavage kobs at 10000 uM GlcN6P” value is 0.000259 ± 4.9e-05 s⁻¹.
As to C50G C67A C71A, in the data set with glucosamine-6-phosphate [1], the “self-cleavage kobs at 40 uM GlcN6P” value was 5.33e-05 ± 1.4e-05 s⁻¹. Also, the “self-cleavage kobs at 160 uM GlcN6P” value with glucosamine-6-phosphate [2] was 0.000226 ± 3.6e-05 s⁻¹. In addition, the “self-cleavage kobs at 640 uM GlcN6P” value with glucosamine-6-phosphate [5] was 0.0002 ± 3.8e-05 s⁻¹. Moreover, the “self-cleavage kobs at 2500 uM GlcN6P” value in the data set with glucosamine-6-phosphate [3] amounted to 8.26e-05 ± 1.6e-05 s⁻¹. For the same variant, the “self-cleavage kobs at 10000 uM GlcN6P” value with glucosamine-6-phosphate [4] was 6e-05 ± 1.6e-05 s⁻¹.
In the same order, the values of G35U C68A are < 1e-05 s⁻¹, < 1e-05 s⁻¹, < 1e-05 s⁻¹, < 1e-05 s⁻¹ and < 1e-05 s⁻¹.
In the same order, the values of A12U A15G are 0.00156 ± 0.00021 s⁻¹, 0.00363 ± 0.00072 s⁻¹, 0.0146 ± 0.0029 s⁻¹, 0.0139 ± 0.0034 s⁻¹ and 0.0602 ± 0.02 s⁻¹.
With U30C G59A C68U, the “self-cleavage kobs at 40 uM GlcN6P” value with glucosamine-6-phosphate [1] was < 1e-05 s⁻¹. Besides, the “self-cleavage kobs at 10000 uM GlcN6P” value in the data set with glucosamine-6-phosphate [4] was < 1e-05 s⁻¹.
G40A U55C C61A: the “self-cleavage kobs at 40 uM GlcN6P” value with glucosamine-6-phosphate [1] is < 1e-05 s⁻¹.
Consider G7A A33C, for which the “self-cleavage kobs at 40 uM GlcN6P” value with glucosamine-6-phosphate [1] was < 1e-05 s⁻¹. Moreover, the “self-cleavage kobs at 160 uM GlcN6P” value with glucosamine-6-phosphate [2] was < 1e-05 s⁻¹. In the data set with glucosamine-6-phosphate [5], the “self-cleavage kobs at 640 uM GlcN6P” value is < 1e-05 s⁻¹. In addition, the “self-cleavage kobs at 10000 uM GlcN6P” value with glucosamine-6-phosphate [4] was < 1e-05 s⁻¹.
Turning to U47A U55A, the “self-cleavage kobs at 40 uM GlcN6P” value with glucosamine-6-phosphate [1] was found to be 0.000618 ± 0.00013 s⁻¹. Moreover, in the data set with glucosamine-6-phosphate [2], the “self-cleavage kobs at 160 uM GlcN6P” value amounted to 0.00147 ± 0.00021 s⁻¹. The “self-cleavage kobs at 640 uM GlcN6P” value in the data set with glucosamine-6-phosphate [5] came out at 0.00544 ± 0.0015 s⁻¹. Moreover, the “self-cleavage kobs at 2500 uM GlcN6P” value in the data set with glucosamine-6-phosphate [3] turned out to be 0.00615 ± 0.0017 s⁻¹. The “self-cleavage kobs at 10000 uM GlcN6P” value with glucosamine-6-phosphate [4] turned out to be 0.0432 ± 0.015 s⁻¹.
For G38U A39G G43U G44C, the “self-cleavage kobs at 40 uM GlcN6P” value in the data set with glucosamine-6-phosphate [1] is < 1e-05 s⁻¹. The “self-cleavage kobs at 10000 uM GlcN6P” value with glucosamine-6-phosphate [4] was < 1e-05 s⁻¹.
Regarding A53C U57C C67G, the “self-cleavage kobs at 40 uM GlcN6P” value with glucosamine-6-phosphate [1] was < 1e-05 s⁻¹. Moreover, the “self-cleavage kobs at 10000 uM GlcN6P” value with glucosamine-6-phosphate [4] was < 1e-05 s⁻¹.
Consider A36C U45A, for which, in the data set with glucosamine-6-phosphate [1], the “self-cleavage kobs at 40 uM GlcN6P” value is < 1e-05 s⁻¹. Also, the “self-cleavage kobs at 160 uM GlcN6P” value in the data set with glucosamine-6-phosphate [2] was < 1e-05 s⁻¹. Besides, in the data set with glucosamine-6-phosphate [4], the “self-cleavage kobs at 10000 uM GlcN6P” value was < 1e-05 s⁻¹.
